Residue numbers refer to the chain shown, from its start. Names may count otherwise.
Target: T1, PUF4 RNA-binding domain (Saccharomyces cerevisiae, UniProt P25339 537-888)
T1 sequence: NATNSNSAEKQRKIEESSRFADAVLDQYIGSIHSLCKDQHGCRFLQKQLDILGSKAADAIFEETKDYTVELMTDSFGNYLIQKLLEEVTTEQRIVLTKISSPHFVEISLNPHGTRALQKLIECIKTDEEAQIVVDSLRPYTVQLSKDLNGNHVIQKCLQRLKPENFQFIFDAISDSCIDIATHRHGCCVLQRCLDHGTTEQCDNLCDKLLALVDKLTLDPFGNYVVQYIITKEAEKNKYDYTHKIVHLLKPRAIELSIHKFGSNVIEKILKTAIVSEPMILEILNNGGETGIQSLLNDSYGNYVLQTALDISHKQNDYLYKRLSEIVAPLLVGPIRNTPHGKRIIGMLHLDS
Test: Mg; RNA-MaP; 20 mM Na-HEPES pH 7.4, 30 mM KOAc, 0.75 mM MgCl2, 0.1% Tween-20, 5% glycerol, 0.1 mg/mL BSA, 2 mM DTT; 25 C; 0.0125-409.6 nM protein
Settings: tags: N-His6-TEV cleaved; C-SNAP kept, Cy3B-labelled; label: tethered on chip by stalled RNA polymerase

B1: Ic_S4_P4E.1_K4.1_C4.1_H4.1_A4.1_[T5G]_[A6C]_[T7C]_F4.1_[A9C]_T4.1 (ssRNA)
RNA: UUUGACAACUGAUCGUUCUUUCUUGUAGCCUCUUCUUUCUCGAUCAGUUGUCUUU
Kd: 0.747 µM

B2: Ic_S4_P4E.1_K4.1_C4.1_H4.1_A4.1_[T5G]_[A6T]_[T7A]_F4.1_[T8C]_[A9G]_T4.1 (ssRNA)
RNA: B1 RNA with C29U, C30A, U31C, C32G
Kd: 0.688 µM

B3: Ic_S4_P4E.1_K4.1_C4.1_H4.1_A4.1_[T5G]_[A6T]_[T7A]_F4.1_[T8C]_[A9T]_T4.1 (ssRNA)
RNA: B1 RNA with C29U, C30A, U31C, C32U
Kd: 0.285 µM

B4: Ic_S4_P4E.1_K4.1_C4.1_H4.1_A4.1_[T5G]_[A6T]_[T7G]_F4.1_T4.1 (ssRNA)
RNA: B1 RNA with C29U, C30G, C32A
Kd: 0.0121 µM

B5: Ic_S4_P4E.1_K4.1_C4.1_H4.1_A4.1_[T5G]_[A6T]_[T7C]_F4.1_[T8C]_T4.1 (ssRNA)
RNA: B1 RNA with C29U, U31C, C32A
Kd: 0.445 µM

B6: Ic_S4_P4E.1_K4.1_C4.1_H4.1_A4.1_[T5G]_[A6C]_[T7A]_F4.1_[A9G]_T4.1 (ssRNA)
RNA: B1 RNA with C30A, C32G
Kd: 0.0513 µM

B7: Ic_S4_P4E.1_K4.1_C4.1_H4.1_A4.1_[T5G]_[A6C]_[T7A]_F4.1_[T8G]_[A9T]_T4.1 (ssRNA)
RNA: B1 RNA with C30A, U31G, C32U
Kd: 0.495 µM

B8: Ic_S4_P4E.1_K4.1_C4.1_H4.1_A4.1_[T5G]_[A6C]_F4.1_[T8G]_[A9T]_T4.1 (ssRNA)
RNA: B1 RNA with C30U, U31G, C32U
Kd: 0.117 µM

B9: Ic_S4_P4E.1_K4.1_C4.1_H4.1_A4.1_[T5G]_[A6C]_F4.1_[T8C]_T4.1 (ssRNA)
RNA: B1 RNA with C30U, U31C, C32A
Kd: 0.365 µM

B10: Ic_S4_P4E.1_K4.1_C4.1_H4.1_A4.1_[T5G]_[A6T]_[T7G]_F4.1_[T8C]_[A9C]_T4.1 (ssRNA)
RNA: B1 RNA with C29U, C30G, U31C
Kd: 1.24 µM

B11: Ic_S4_P4E.1_K4.1_C4.1_H4.1_A4.1_[T5G]_[A6T]_[T7C]_F4.1_[T8C]_[A9T]_T4.1 (ssRNA)
RNA: B1 RNA with C29U, U31C, C32U
Kd: 0.194 µM

B12: Ic_S4_P4E.1_K4.1_C4.1_H4.1_A4.1_[T5G]_[A6T]_[T7A]_F4.1_[T8G]_[A9T]_T4.1 (ssRNA)
RNA: B1 RNA with C29U, C30A, U31G, C32U
Kd: 0.649 µM

B13: Ic_S4_P4E.1_K4.1_C4.1_H4.1_A4.1_[T5G]_[A6C]_[T7A]_F4.1_[T8C]_T4.1 (ssRNA)
RNA: B1 RNA with C30A, U31C, C32A
Kd: 0.772 µM

B14: Ic_S4_P4E.1_K4.1_C4.1_H4.1_A4.1_[T5G]_[A6T]_[T7C]_F4.1_[T8C]_[A9C]_T4.1 (ssRNA)
RNA: B1 RNA with C29U, U31C
Kd: 0.514 µM

B15: Ic_S4_P4E.1_K4.1_C4.1_H4.1_A4.1_[T5G]_[A6T]_[T7A]_F4.1_[T8A]_[A9C]_T4.1 (ssRNA)
RNA: B1 RNA with C29U, C30A, U31A
Kd: 0.977 µM

B16: Ic_S4_P4E.1_K4.1_C4.1_H4.1_A4.1_[T5G]_[A6T]_[T7G]_F4.1_[A9C]_T4.1 (ssRNA)
RNA: B1 RNA with C29U, C30G
Kd: 0.238 µM

B17: Ic_S4_P4E.1_K4.1_C4.1_H4.1_A4.1_[T5G]_[A6T]_[T7C]_F4.1_[A9G]_T4.1 (ssRNA)
RNA: B1 RNA with C29U, C32G
Kd: 0.166 µM

B18: Ic_S4_P4E.1_K4.1_C4.1_H4.1_A4.1_[T5G]_[A6T]_[T7A]_F4.1_[T8A]_T4.1 (ssRNA)
RNA: B1 RNA with C29U, C30A, U31A, C32A
Kd: 0.445 µM

B19: Ic_S4_P4E.1_K4.1_C4.1_H4.1_A4.1_[T5G]_[A6T]_[T7C]_F4.1_[A9C]_T4.1 (ssRNA)
RNA: B1 RNA with C29U
Kd: 0.155 µM

B20: Ic_S4_P4E.1_K4.1_C4.1_H4.1_A4.1_[T5G]_[A6C]_[T7A]_F4.1_[T8A]_[A9C]_T4.1 (ssRNA)
RNA: B1 RNA with C30A, U31A
Kd: 1.35 µM

B21: Ic_S4_P4E.1_K4.1_C4.1_H4.1_A4.1_[T5G]_[A6C]_[T7C]_F4.1_[T8A]_[A9T]_T4.1 (ssRNA)
RNA: B1 RNA with U31A, C32U
Kd: 0.428 µM

B22: Ic_S4_P4E.1_K4.1_C4.1_H4.1_A4.1_[T5G]_[A6C]_[T7C]_F4.1_[T8C]_T4.1 (ssRNA)
RNA: B1 RNA with U31C, C32A
Kd: 0.997 µM

B23: Ic_S4_P4E.1_K4.1_C4.1_H4.1_A4.1_[T5G]_[A6T]_[T7C]_F4.1_[T8C]_[A9G]_T4.1 (ssRNA)
RNA: B1 RNA with C29U, U31C, C32G
Kd: 0.701 µM

B24: Ic_S4_P4E.1_K4.1_C4.1_H4.1_A4.1_[T5G]_[A6T]_[T7C]_F4.1_[T8G]_[A9T]_T4.1 (ssRNA)
RNA: B1 RNA with C29U, U31G, C32U
Kd: 0.616 µM

B25: Ic_S4_P4E.1_K4.1_C4.1_H4.1_A4.1_[T5G]_[A6C]_[T7G]_F4.1_[T8C]_[A9C]_T4.1 (ssRNA)
RNA: B1 RNA with C30G, U31C
Kd: 1.05 µM

B26: Ic_S4_P4E.1_K4.1_C4.1_H4.1_A4.1_[T5G]_[A6C]_[T7C]_F4.1_[T8C]_[A9G]_T4.1 (ssRNA)
RNA: B1 RNA with U31C, C32G
Kd: 1.44 µM

B27: Ic_S4_P4E.1_K4.1_C4.1_H4.1_A4.1_[T5G]_[A6C]_[T7C]_F4.1_[T8A]_T4.1 (ssRNA)
RNA: B1 RNA with U31A, C32A
Kd: 0.78 µM

B28: Ic_S4_P4E.1_K4.1_C4.1_H4.1_A4.1_[T5G]_[A6C]_[T7C]_F4.1_[T8C]_[A9C]_T4.1 (ssRNA)
RNA: B1 RNA with U31C
Kd: 0.786 µM

UCUCUUUGUGUAUUCUCUCUU (ssRNA) [Ib_S1_P4E.1_K4.1_C4.1_H4.1_[A4G]_A4.1_F4.1_[A9C]_T4.1]
Kd: 0.0404 µM
